Assay results taken from PMC3832594, “The Neuroplastin Adhesion Molecules Are Accessory Proteins That Chaperone the Monocarboxylate Transporter MCT2 to the Neuronal Cell Surface” (PLoS ONE, 2013).

Biological target: T1, MCT2 tagged at its N-terminus with CFP (rat, UniProt Q63344 1-489)
T1 construct: Monocarboxylate transporter MCT2; also called MCT2-ECFP (N-terminal); MCT2-CFP; source: COS-7, transiently transfected (Fugene 6), in live cells; not shown: ECFP, N-terminal, kept
T1 sequence (looked up): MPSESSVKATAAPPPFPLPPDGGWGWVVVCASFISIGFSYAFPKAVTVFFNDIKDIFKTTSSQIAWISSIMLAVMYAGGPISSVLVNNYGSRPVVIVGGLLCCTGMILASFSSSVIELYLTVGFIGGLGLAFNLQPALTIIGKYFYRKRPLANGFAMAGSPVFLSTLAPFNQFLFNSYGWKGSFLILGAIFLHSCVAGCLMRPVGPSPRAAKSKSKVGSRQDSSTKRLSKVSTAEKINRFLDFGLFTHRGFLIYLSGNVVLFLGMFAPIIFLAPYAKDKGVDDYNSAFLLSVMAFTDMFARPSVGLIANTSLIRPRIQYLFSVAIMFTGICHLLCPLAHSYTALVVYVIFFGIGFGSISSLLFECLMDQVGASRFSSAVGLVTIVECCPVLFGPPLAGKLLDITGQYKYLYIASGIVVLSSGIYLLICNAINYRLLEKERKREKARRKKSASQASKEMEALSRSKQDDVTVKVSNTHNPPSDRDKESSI
Assay: FRET or BRET; live COS-7 cells co-transfected with MCT2-ECFP (N-terminal) and np55- or np65-EYFP (C-terminal), 48 h after transfection; 37°C, imaging buffer pH 7.4; ratio of emission at 480 nm to 530 nm on excitation at 430 nm (MCT2-CFP alone 1.33±0.016)
Details: partners not purified

- 480:530 nm fluorescence emission ratio (FRET): 0.792
B1: np65 C-terminally labelled with YFP (natural protein)
chain: not shown
notes: Neuroplastin np65, the form with 3 Ig domains; also called np65-EYFP (C-terminal); np65-YFP; source: COS-7, transiently transfected (Fugene 6), in live cells; not shown: EYFP, C-terminal, kept
